± gives the uncertainty stated by the source.

The chains are these.
B1: Tripartite motif-containing protein 44, residues 174 to 218; numbered along this chain, Q96DX7 (parent)
chain: VAKRKCPDHGLDLSTYCQEDRQLICVLCPVIGAHQGHQLSTLDEA

In the series the parent is B1. The series is described as follows: abundance fitness (aPCA) (normalised: wild type 0, dead -1); higher = more abundant; growth selection in yeast, the domain comes from the species named. The following applies: Homo sapiens.
In the case of VAKRKCPDHGLDLSTYCQEDRQLICVMCPVIGAHQGHQLSTLDEA [L27M], the abundance fitness came to 0.039 ± 0.032. Next, VAKRKCPDHGLDLSTYCQEDRQLICVCCPVIGAHQGHQLSTLDEA [L27C]: -0.283 ± 0.035. The result for VAKRKCPDHGLDLSTYCQEDRQLICVHCPVIGAHQGHQLSTLDEA [L27H] reads -0.069 ± 0.045; that for VAKRKCPDHGLDLSTYCQEDRQLICVGCPVIGAHQGHQLSTLDEA [L27G], -0.25 ± 0.026. For the variant VAKRKCPDHGLDLSTYCQEDRQLICVNCPVIGAHQGHQLSTLDEA [L27N], the abundance fitness is 0.055 ± 0.038. For the variant VAKRKCPDHGLDLSTYCQEDRQLICVPCPVIGAHQGHQLSTLDEA [L27P], the abundance fitness is -0.624 ± 0.055. The result for VAKRKCPDHGLDLSTYCQEDRQLICVTCPVIGAHQGHQLSTLDEA [L27T] reads -0.212 ± 0.033; that for VAKRKCPDHGLDLSTYCQEDRQLICVYCPVIGAHQGHQLSTLDEA [L27Y], -0.059 ± 0.044; that for VAKRKCPDHGLDLSTYCQEDRQLICVRCPVIGAHQGHQLSTLDEA [L27R], 0.024 ± 0.026. Next, VAKRKCPDHGLDLSTYCQEDRRLICVLCPVIGAHQGHQLSTLDEA [Q22R]: -0.001 ± 0.026.

Take VAKRKCPDHGLDLSTYCQEDRYLICVLCPVIGAHQGHQLSTLDEA [Q22Y]: the abundance fitness was 0.02 ± 0.079. Next, VAKRKCPDHGLDLSTYCQEDRDLICVLCPVIGAHQGHQLSTLDEA [Q22D]: -0.014 ± 0.036; VAKRKCPDHGLDLSTYCQEDRVLICVLCPVIGAHQGHQLSTLDEA [Q22V]: -0.039 ± 0.027; VAKRKCPDHGLDLSTYCQEDRELICVLCPVIGAHQGHQLSTLDEA [Q22E]: 0.072 ± 0.029.

VAKRKCPDHGLDLSTYCQEDRMLICVLCPVIGAHQGHQLSTLDEA [Q22M]: the abundance fitness was 0.004 ± 0.035. For VAKRKCPDHGLDLSTYCQEDRHLICVLCPVIGAHQGHQLSTLDEA [Q22H], the abundance fitness was -0.044 ± 0.04.

As to VAKRKCPDHGLDLSTYCQEDRKLICVLCPVIGAHQGHQLSTLDEA [Q22K], the abundance fitness worked out at 0.027 ± 0.037. Next, VAKRKCPDHGLDLSTYCQEDRLLICVLCPVIGAHQGHQLSTLDEA [Q22L]: -0.074 ± 0.03.

VAKRKCPDHGLDLSTYCQEDRILICVLCPVIGAHQGHQLSTLDEA [Q22I]: the abundance fitness was -0.094 ± 0.07. VAKRKCPDHGLDLSTYCQEDRPLICVLCPVIGAHQGHQLSTLDEA [Q22P]: the abundance fitness was -0.726 ± 0.096. Next, VAKRKCPDHGLDLSTYCQEDRSLICVLCPVIGAHQGHQLSTLDEA [Q22S]: 0.007 ± 0.033. The result for VAKRKCPDHGLDLSTYCQEDRFLICVLCPVIGAHQGHQLSTLDEA [Q22F] reads -0.281 ± 0.048; that for VAKRKCPDHGLDLSTYCQEDRGLICVLCPVIGAHQGHQLSTLDEA [Q22G], -0.109 ± 0.025; that for VAKRKCPDHGLDLSTYCQEDRTLICVLCPVIGAHQGHQLSTLDEA [Q22T], 0.06 ± 0.037.

As for VAKRKCPDHGLDLSTYCQEDRWLICVLCPVIGAHQGHQLSTLDEA [Q22W], the abundance fitness is -0.552 ± 0.032. Next, VAKRKCPDHGLDLSTYCQEDRCLICVLCPVIGAHQGHQLSTLDEA [Q22C]: 0.042 ± 0.048; VAKRKCPDHGLDLSTYCQEDRALICVLCPVIGAHQGHQLSTLDEA [Q22A]: -0.019 ± 0.027; VAKRKCPDHGLDLSTYCQEDCQLICVLCPVIGAHQGHQLSTLDEA [R21C]: 0.009 ± 0.032. As to VAKRKCPDHGLDLSTYCQEDTQLICVLCPVIGAHQGHQLSTLDEA [R21T], the abundance fitness is -0.037 ± 0.033.

Turning to VAKRKCPDHGLDLSTYCQEDAQLICVLCPVIGAHQGHQLSTLDEA [R21A], the abundance fitness stood at 0 ± 0.027.

As to VAKRKCPDHGLDLSTYCQEDNQLICVLCPVIGAHQGHQLSTLDEA [R21N], the abundance fitness worked out at 0.047 ± 0.039. The result for VAKRKCPDHGLDLSTYCQEDSQLICVLCPVIGAHQGHQLSTLDEA [R21S] reads 0.068 ± 0.03. In the case of VAKRKCPDHGLDLSTYCQEDVQLICVLCPVIGAHQGHQLSTLDEA [R21V], the abundance fitness was -0.205 ± 0.029. In the case of VAKRKCPDHGLDLSTYCQEDMQLICVLCPVIGAHQGHQLSTLDEA [R21M], the abundance fitness is -0.016 ± 0.034.

On to VAKRKCPDHGLDLSTYCQEDHQLICVLCPVIGAHQGHQLSTLDEA [R21H], for which the abundance fitness worked out at 0.029 ± 0.044.

Consider VAKRKCPDHGLDLSTYCQEDKQLICVLCPVIGAHQGHQLSTLDEA [R21K], for which the abundance fitness stood at 0.063 ± 0.037. With VAKRKCPDHGLDLSTYCQEDGQLICVLCPVIGAHQGHQLSTLDEA [R21G], the abundance fitness was 0.025 ± 0.025. Next, VAKRKCPDHGLDLSTYCQEDPQLICVLCPVIGAHQGHQLSTLDEA [R21P]: -0.691 ± 0.046; VAKRKCPDHGLDLSTYCQEDWQLICVLCPVIGAHQGHQLSTLDEA [R21W]: -0.24 ± 0.03; VAKRKCPDHGLDLSTYCQEDEQLICVLCPVIGAHQGHQLSTLDEA [R21E]: 0.043 ± 0.029. The result for VAKRKCPDHGLDLSTYCQEDDQLICVLCPVIGAHQGHQLSTLDEA [R21D] reads 0.071 ± 0.035; that for VAKRKCPDHGLDLSTYCQEDYQLICVLCPVIGAHQGHQLSTLDEA [R21Y], 0.001 ± 0.095; that for VAKRKCPDHGLDLSTYCQEDRQLVCVLCPVIGAHQGHQLSTLDEA [I24V], -0.051 ± 0.026. As for VAKRKCPDHGLDLSTYCQEDRQLTCVLCPVIGAHQGHQLSTLDEA [I24T], the abundance fitness is -0.052 ± 0.028.

Consider VAKRKCPDHGLDLSTYCQEDRQLECVLCPVIGAHQGHQLSTLDEA [I24E], for which the abundance fitness was -0.457 ± 0.03. The result for VAKRKCPDHGLDLSTYCQEDRQLSCVLCPVIGAHQGHQLSTLDEA [I24S] reads -0.31 ± 0.032; that for VAKRKCPDHGLDLSTYCQEDRQLKCVLCPVIGAHQGHQLSTLDEA [I24K], -0.138 ± 0.037; that for VAKRKCPDHGLDLSTYCQEDRQLLCVLCPVIGAHQGHQLSTLDEA [I24L], -0.068 ± 0.029. With VAKRKCPDHGLDLSTYCQEDRQLACVLCPVIGAHQGHQLSTLDEA [I24A], the abundance fitness was -0.121 ± 0.028.

VAKRKCPDHGLDLSTYCQEDRQLDCVLCPVIGAHQGHQLSTLDEA [I24D]: the abundance fitness was -0.427 ± 0.039. Regarding VAKRKCPDHGLDLSTYCQEDRQLYCVLCPVIGAHQGHQLSTLDEA [I24Y], the abundance fitness is -0.262 ± 0.049.

With VAKRKCPDHGLDLSTYCQEDRQLHCVLCPVIGAHQGHQLSTLDEA [I24H], the abundance fitness is -0.312 ± 0.048. For the variant VAKRKCPDHGLDLSTYCQEDRQLRCVLCPVIGAHQGHQLSTLDEA [I24R], the abundance fitness was -0.171 ± 0.026. Turning to VAKRKCPDHGLDLSTYCQEDRQLFCVLCPVIGAHQGHQLSTLDEA [I24F], the abundance fitness was -0.173 ± 0.047. Take VAKRKCPDHGLDLSTYCQEDRQLCCVLCPVIGAHQGHQLSTLDEA [I24C]: the abundance fitness is -0.043 ± 0.033. The result for VAKRKCPDHGLDLSTYCQEDRQLMCVLCPVIGAHQGHQLSTLDEA [I24M] reads -0.041 ± 0.031; that for VAKRKCPDHGLDLSTYCQEDRQLNCVLCPVIGAHQGHQLSTLDEA [I24N], -0.407 ± 0.048.

The record behind these values is the Human Domainome abundance scans (Beltran et al. 2025).
